Test results published in patent US20050037969A1 (ARBOR VITA, published 2005).
Ends that are not written are not given here. * marks the point of attachment. Biotin = O=C1N[C@H]2[C@H](CS[C@H]2CCCCC(=O)*)N1

T1: K858 PDZ-GST fusion protein (Homo sapiens (Human), UniProt Q8WWI1 1038-1131)
T1 construct: Order of GST and PDZ part and limits not seen in the excerpts
T1 sequence: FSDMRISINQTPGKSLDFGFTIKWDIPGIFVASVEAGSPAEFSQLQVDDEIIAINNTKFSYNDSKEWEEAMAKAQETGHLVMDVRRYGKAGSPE

T2: GST-AF6 PDZ domain fusion protein (Homo sapiens (Human), UniProt P55196 1001-1093)
T2 construct: also called af-6 protein; not shown: glutathione S-transferase encoded by vector pGEX-3X (Pharmacia)
T2 sequence: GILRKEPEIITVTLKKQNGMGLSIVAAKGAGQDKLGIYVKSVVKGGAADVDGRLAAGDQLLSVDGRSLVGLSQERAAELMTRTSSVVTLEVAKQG

T3: GST-cytohesin binding protein PDZ domain fusion protein (Homo sapiens (Human), UniProt O60759 74-165)
T3 construct: also called CBP; not shown: glutathione S-transferase encoded by vector pGEX-3X (Pharmacia)
T3 sequence: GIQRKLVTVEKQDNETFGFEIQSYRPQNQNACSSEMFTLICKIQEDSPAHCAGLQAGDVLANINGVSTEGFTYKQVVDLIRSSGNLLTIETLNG

T4: GST-KIAA0303 PDZ domain fusion protein (Homo sapiens (Human), UniProt O15021 1138-1228)
T4 construct: also called K303; not shown: glutathione S-transferase encoded by vector pGEX-3X (Pharmacia)
T4 sequence: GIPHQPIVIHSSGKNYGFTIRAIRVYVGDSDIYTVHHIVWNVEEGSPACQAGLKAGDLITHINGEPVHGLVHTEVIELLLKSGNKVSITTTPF

T5: SP short PDZ-GST fusion protein (Homo sapiens (Human), UniProt O43464 350-435)
T5 construct: The label SP short is not explained in the excerpts
T5 sequence: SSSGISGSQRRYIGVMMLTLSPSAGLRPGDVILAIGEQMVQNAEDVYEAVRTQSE

T6: ConEn PDZ-GST fusion protein (Homo sapiens (Human), UniProt Q969H4 193-287)
T6 construct: The label ConEn is not explained in the excerpts
T6 sequence: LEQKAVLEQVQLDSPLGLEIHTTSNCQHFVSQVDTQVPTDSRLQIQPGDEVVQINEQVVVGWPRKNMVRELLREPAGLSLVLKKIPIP

T7: GST-RGS12 PDZ domain fusion protein (human, UniProt O14924 17-85)
T7 construct: also called human regulator of G-protein signalling 12; not shown: glutathione S-transferase encoded by vector pGEX-3X (Pharmacia)
T7 sequence: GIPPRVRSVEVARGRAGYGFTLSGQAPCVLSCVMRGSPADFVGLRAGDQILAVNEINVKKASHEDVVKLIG

T8: GST-TAX-IP40 PDZ domain fusion protein (human, UniProt Q6B4M5 150-252 (rat entry))
T8 construct: also called TAX40; not shown: glutathione S-transferase encoded by vector pGEX-3X (Pharmacia)
T8 sequence: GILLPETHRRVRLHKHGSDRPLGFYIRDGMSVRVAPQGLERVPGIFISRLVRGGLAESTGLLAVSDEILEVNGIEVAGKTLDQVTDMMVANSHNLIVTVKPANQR

T9: GST-PTN-4 PDZ domain fusion protein (Homo sapiens (Human), UniProt P29074 517-605)
T9 construct: also called protein-tyrosine phosphatase meg1; not shown: glutathione S-transferase encoded by vector pGEX-3X (Pharmacia)
T9 sequence: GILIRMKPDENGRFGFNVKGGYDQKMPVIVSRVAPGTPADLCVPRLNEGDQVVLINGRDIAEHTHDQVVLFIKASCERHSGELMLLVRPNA

T10: GST-prIL16 fusion protein (PDZ domains 1-2) (Homo sapiens (Human), UniProt Q14005 1111-1324)
T10 construct: also called putative interleukin 16 precursor; not shown: glutathione S-transferase encoded by vector pGEX-3X (Pharmacia)
T10 sequence: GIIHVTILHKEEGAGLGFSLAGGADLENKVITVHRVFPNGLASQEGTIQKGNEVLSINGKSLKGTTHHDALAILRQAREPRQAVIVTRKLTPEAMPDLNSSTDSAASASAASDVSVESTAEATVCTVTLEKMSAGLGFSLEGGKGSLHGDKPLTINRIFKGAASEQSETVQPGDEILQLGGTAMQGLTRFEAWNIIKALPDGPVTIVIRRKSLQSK

T11: GST-MPP1 PDZ domain fusion protein (Homo sapiens (Human), UniProt Q00013 67-152)
T11 construct: also called p55; 55 Kd erythrocyte membrane protein; not shown: glutathione S-transferase encoded by vector pGEX-3X (Pharmacia)
T11 sequence: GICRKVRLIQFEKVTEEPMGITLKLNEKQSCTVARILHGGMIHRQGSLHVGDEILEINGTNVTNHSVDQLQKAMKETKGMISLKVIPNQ

T12: GST-TAX-IP2 PDZ domain fusion protein (human, UniProt O14908 129-216)
T12 construct: also called TAX-1P2; TAX2; not shown: glutathione S-transferase encoded by vector pGEX-3X (Pharmacia)
T12 chain: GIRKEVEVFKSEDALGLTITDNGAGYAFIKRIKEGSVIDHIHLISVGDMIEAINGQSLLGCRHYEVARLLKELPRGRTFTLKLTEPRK

B1: Clasp-2 C-terminal peptide AA2L, biotinylated (peptide)
peptide: Biotin-ISGTPTSTMVHGMTSSSSVV
B2: CD105 C-terminal peptide AA16L, biotinylated (peptide)
peptide: Biotin-STNHSIGSTQSTPCSTSSMA
notes: also called CD105 (endoglin)

biological target: T13, GST-TIAM1 PDZ domain fusion protein (Homo sapiens (Human), UniProt Q13009 845-931); assay: A/G assays
T13 construct: also called TLAM1; T-lymphoma invasion and metastasis inducing protein 1; not shown: glutathione S-transferase encoded by vector pGEX-3X (Pharmacia)
T13 sequence (Q13009 other isoform, or with tags, fused parts or gaps): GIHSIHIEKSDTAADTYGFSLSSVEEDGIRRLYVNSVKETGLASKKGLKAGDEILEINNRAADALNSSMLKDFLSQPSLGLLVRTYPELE

binding result | Binder
no binding | B1
no binding | B2

biological target: T14, NSP PDZ-GST fusion protein (Homo sapiens (Human), UniProt Q92743 370-466); assay: A/G assays
T14 construct: The label NSP is not explained in the excerpts
T14 sequence (Q92743 other isoform, or with tags, fused parts or gaps limits assumed): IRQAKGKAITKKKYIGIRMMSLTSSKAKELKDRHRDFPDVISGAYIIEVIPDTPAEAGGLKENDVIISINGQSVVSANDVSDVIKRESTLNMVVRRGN

binding result | Binder
no binding | B1
no binding | B2

biological target: T1, K858 PDZ-GST fusion protein; assay: A/G assays

binding result | Binder
no binding | B1
no binding | B2

biological target: T2, GST-AF6 PDZ domain fusion protein; assay: A/G assays

binding result | Binder
no binding | B1
no binding | B2

biological target: T3, GST-cytohesin binding protein PDZ …; assay: A/G assays

binding result | Binder
no binding | B1
no binding | B2

biological target: T4, GST-KIAA0303 PDZ domain fusion protein; assay: A/G assays

binding result | Binder
no binding | B1
no binding | B2

biological target: T5, SP short PDZ-GST fusion protein; assay: A/G assays

binding result | Binder
no binding | B1
no binding | B2

biological target: T6, ConEn PDZ-GST fusion protein; assay: A/G assays

binding result | Binder
no binding | B1
no binding | B2

biological target: T7, GST-RGS12 PDZ domain fusion protein; assay: A/G assays

binding result | Binder
no binding | B1
no binding | B2

biological target: T15, PICK1 PDZ-GST fusion protein (Bos taurus (Bovine), UniProt Q2T9M1 17-105); assay: A/G assays
T15 construct: Order of GST and PDZ part and limits not seen in the excerpts
T15 sequence (Q2T9M1 other isoform, or with tags, fused parts or gaps limits assumed): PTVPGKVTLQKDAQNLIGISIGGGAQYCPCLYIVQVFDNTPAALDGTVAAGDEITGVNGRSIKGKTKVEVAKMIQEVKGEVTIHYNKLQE

binding result | Binder
no binding | B1
no binding | B2

biological target: T8, GST-TAX-IP40 PDZ domain fusion protein; assay: A/G assays

binding result | Binder
no binding | B1
no binding | B2

biological target: T9, GST-PTN-4 PDZ domain fusion protein; assay: A/G assays

binding result | Binder
no binding | B1
no binding | B2

biological target: T10, GST-prIL16 fusion protein (PDZ domains …); assay: A/G assays

binding result | Binder
no binding | B1
no binding | B2

biological target: T16, NOS1 PDZ-GST fusion protein (Homo sapiens (Human), UniProt P29475 11-100); assay: A/G assays
T16 construct: Order of GST and PDZ part and limits not seen in the excerpts
T16 sequence (P29475 11-100 limits assumed): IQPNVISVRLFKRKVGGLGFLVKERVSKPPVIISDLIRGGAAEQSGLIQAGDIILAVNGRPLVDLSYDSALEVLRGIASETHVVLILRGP

binding result | Binder
no binding | B1
no binding | B2

biological target: T11, GST-MPP1 PDZ domain fusion protein; assay: A/G assays

binding result | Binder
no binding | B1
no binding | B2

Biological target: T12, GST-TAX-IP2 PDZ domain fusion protein
Assay: A/G assays

binding result | Binder
no binding | B1
no binding | B2
